Numbered stars: 1 amine (or outer) side, 2 acyl side, 3 side chain; on linkers, the order of the positions; unused ones are H or OH. Bridge positions count the residues as written; N and C are the ends. Side chains are listed from the residue outwards. Ends that are not written are not given here. * marks the point of attachment. C20 diacid = O=C(O)CCCCCCCCCCCCCCCCCCC(=O)*; γGlu = O=C(O)[C@H](CCC(=O)[*:2])N[*:1]

By IC50 is commonly meant the concentration needed to halve the response being measured.

For experiment [1], the target named is T1, human calcitonin receptor (human, UniProt P30988 25-474).
T1 construct: whole, on cells; Assay used cell membranes of the transfected BHK cells; also called hCTR; hCT
T1 sequence (looked up): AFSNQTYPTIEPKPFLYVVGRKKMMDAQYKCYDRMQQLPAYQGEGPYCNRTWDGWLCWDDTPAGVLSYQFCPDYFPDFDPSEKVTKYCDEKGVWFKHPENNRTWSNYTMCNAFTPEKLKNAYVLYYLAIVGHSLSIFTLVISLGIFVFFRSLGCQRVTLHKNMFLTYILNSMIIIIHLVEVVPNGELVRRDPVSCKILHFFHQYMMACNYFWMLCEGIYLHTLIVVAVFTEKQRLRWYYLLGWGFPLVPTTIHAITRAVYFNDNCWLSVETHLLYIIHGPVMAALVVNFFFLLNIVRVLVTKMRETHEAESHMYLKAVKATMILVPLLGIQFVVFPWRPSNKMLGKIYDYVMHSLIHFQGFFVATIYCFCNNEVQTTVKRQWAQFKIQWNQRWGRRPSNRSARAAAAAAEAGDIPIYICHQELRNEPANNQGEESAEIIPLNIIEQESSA
Put plainly: ratio IC50 hCTR / IC50 hAmylin-R of the two SPA competition assays; reference: human amylin receptor. The gist of the method: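 Scintillation proximity competition binding on cell membranes at 35 ng/μL with SPA beads, in 50 mM Hepes pH 7.4, 1 mM CaCl2, 5 mM MgCl₂, 0.1% OA, 0.02% Tween20. Incubated 120 min at 25° C with shaking. IC₅₀ from one-site competition fit.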

Experiment [2] deals with T1, human calcitonin receptor. Put plainly: SPA radioligand competition (125I-calcitonin), membranes of BHK cells with human calcitonin receptor. The gist of the method:
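BHK hCTR membranes 35 ng/μL + SPA beads 0.05 mg/well; buffer 50 mM Hepes pH 7.4, 1 mM CaCl2, 5 mM MgCl₂, 0.1% OA, 0.02% Tween20. 120 min, 25° C., shaking. Scintillation count; IC50 by one-site binding competition.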

B1: N^α1-[(4S)-4-carboxy-4-(19-carboxynonadecanoylamino)butanoyl]-[Glu14,Arg17,Pro21,Pro25,Pro28,Pro29]-h-amylin (peptide)
peptide: {C20 diacid-γGlu}-KCNTATCATQRLAEFLRHSSPNFGPILPPTNVGSNTY-NH2
modifications: disulfide 2-7
SMILES: CC[C@H](C)[C@H](NC(=O)[C@@H]1CCCN1C(=O)CNC(=O)[C@H](Cc1ccccc1)NC(=O)[C@H](CC(N)=O)NC(=O)[C@@H]1CCCN1C(=O)[C@H](CO)NC(=O)[C@H](CO)NC(=O)[C@H](Cc1c[nH]cn1)NC(=O)[C@H](CCCNC(=N)N)NC(=O)[C@H](CC(C)C)NC(=O)[C@H](Cc1ccccc1)NC(=O)[C@H](CCC(=O)O)NC(=O)[C@H](C)NC(=O)[C@H](CC(C)C)NC(=O)[C@H](CCCNC(=N)N)NC(=O)[C@H](CCC(N)=O)NC(=O)[C@@H](NC(=O)[C@H](C)NC(=O)[C@@H]1CSSC[C@H](NC(=O)[C@H](CCCCN)NC(=O)CC[C@H](NC(=O)CCCCCCCCCCCCCCCCCCC(=O)O)C(=O)O)C(=O)N[C@@H](CC(N)=O)C(=O)N[C@@H]([C@@H](C)O)C(=O)N[C@@H](C)C(=O)N[C@@H]([C@@H](C)O)C(=O)N1)[C@@H](C)O)C(=O)N[C@@H](CC(C)C)C(=O)N1CCC[C@H]1C(=O)N1CCC[C@H]1C(=O)N[C@H](C(=O)N[C@@H](CC(N)=O)C(=O)N[C@H](C(=O)NCC(=O)N[C@@H](CO)C(=O)N[C@@H](CC(N)=O)C(=O)N[C@H](C(=O)N[C@@H](Cc1ccc(O)cc1)C(N)=O)[C@@H](C)O)C(C)C)[C@@H](C)O
notes: Synthetic analogue; also called compound 6
Regarding B1, in experiment [1], the “Ratio hCT/hAmylin binding” value came to 20. The IC50 in experiment [2] stood at 19.9 nM.

B2: N^ε1-[(4S)-4-carboxy-4-(19-carboxynonadecanoylamino)butanoyl]-[Arg17,Pro21,Pro27,Glu35]-h-amylin (peptide)
peptide: K([γGlu-C20 diacid])CNTATCATQRLANFLRHSSPNFGAIPSSTNVGSETY-NH2
modifications: disulfide 2-7; N-terminus assumed
SMILES: CC[C@H](C)[C@H](NC(=O)[C@H](C)NC(=O)CNC(=O)[C@H](Cc1ccccc1)NC(=O)[C@H](CC(N)=O)NC(=O)[C@@H]1CCCN1C(=O)[C@H](CO)NC(=O)[C@H](CO)NC(=O)[C@H](Cc1c[nH]cn1)NC(=O)[C@H](CCCNC(=N)N)NC(=O)[C@H](CC(C)C)NC(=O)[C@H](Cc1ccccc1)NC(=O)[C@H](CC(N)=O)NC(=O)[C@H](C)NC(=O)[C@H](CC(C)C)NC(=O)[C@H](CCCNC(=N)N)NC(=O)[C@H](CCC(N)=O)NC(=O)[C@@H](NC(=O)[C@H](C)NC(=O)[C@@H]1CSSC[C@H](NC(=O)[C@@H](N)CCCCNC(=O)CC[C@H](NC(=O)CCCCCCCCCCCCCCCCCCC(=O)O)C(=O)O)C(=O)N[C@@H](CC(N)=O)C(=O)N[C@@H]([C@@H](C)O)C(=O)N[C@@H](C)C(=O)N[C@@H]([C@@H](C)O)C(=O)N1)[C@@H](C)O)C(=O)N1CCC[C@H]1C(=O)N[C@@H](CO)C(=O)N[C@@H](CO)C(=O)N[C@H](C(=O)N[C@@H](CC(N)=O)C(=O)N[C@H](C(=O)NCC(=O)N[C@@H](CO)C(=O)N[C@@H](CCC(=O)O)C(=O)N[C@H](C(=O)N[C@@H](Cc1ccc(O)cc1)C(N)=O)[C@@H](C)O)C(C)C)[C@@H](C)O
notes: Synthetic analogue; also called compound 27
For B2, the “Ratio hCT/hAmylin binding” value in experiment [1] is 41.3. Further, the IC50 in experiment [2] turned out to be 34.5 nM.

B3: N{Alpha-1}-[(4S)-4-carboxy-4-(19-carboxynonadecanoylamino)butanoyl]-[Glu14,Arg17,Pro21,Pro27,Lys34]-h-amylin (peptide)
peptide: {C20 diacid-γGlu}-KCNTATCATQRLAEFLRHSSPNFGAIPSSTNVGKNTY-NH2
modifications: disulfide 2-7
SMILES: CC[C@H](C)[C@H](NC(=O)[C@H](C)NC(=O)CNC(=O)[C@H](Cc1ccccc1)NC(=O)[C@H](CC(N)=O)NC(=O)[C@@H]1CCCN1C(=O)[C@H](CO)NC(=O)[C@H](CO)NC(=O)[C@H](Cc1c[nH]cn1)NC(=O)[C@H](CCCNC(=N)N)NC(=O)[C@H](CC(C)C)NC(=O)[C@H](Cc1ccccc1)NC(=O)[C@H](CCC(=O)O)NC(=O)[C@H](C)NC(=O)[C@H](CC(C)C)NC(=O)[C@H](CCCNC(=N)N)NC(=O)[C@H](CCC(N)=O)NC(=O)[C@@H](NC(=O)[C@H](C)NC(=O)[C@@H]1CSSC[C@H](NC(=O)[C@H](CCCCN)NC(=O)CC[C@H](NC(=O)CCCCCCCCCCCCCCCCCCC(=O)O)C(=O)O)C(=O)N[C@@H](CC(N)=O)C(=O)N[C@@H]([C@@H](C)O)C(=O)N[C@@H](C)C(=O)N[C@@H]([C@@H](C)O)C(=O)N1)[C@@H](C)O)C(=O)N1CCC[C@H]1C(=O)N[C@@H](CO)C(=O)N[C@@H](CO)C(=O)N[C@H](C(=O)N[C@@H](CC(N)=O)C(=O)N[C@H](C(=O)NCC(=O)N[C@@H](CCCCN)C(=O)N[C@@H](CC(N)=O)C(=O)N[C@H](C(=O)N[C@@H](Cc1ccc(O)cc1)C(N)=O)[C@@H](C)O)C(C)C)[C@@H](C)O
notes: Synthetic analogue; also called compound 36
For the molecule B3, the “Ratio hCT/hAmylin binding” value in experiment [1] was determined as 15.7. Besides, in experiment [2], the IC50 worked out at 6.3 nM.

B4: N^ε1-[(4S)-4-carboxy-4-(19-carboxynonadecanoylamino)butanoyl]-[Arg17,Pro21,Pro27,Lys35]-h-amylin (peptide)
peptide: K([γGlu-C20 diacid])CNTATCATQRLANFLRHSSPNFGAIPSSTNVGSKTY-NH2
modifications: disulfide 2-7; N-terminus assumed
SMILES: CC[C@H](C)[C@H](NC(=O)[C@H](C)NC(=O)CNC(=O)[C@H](Cc1ccccc1)NC(=O)[C@H](CC(N)=O)NC(=O)[C@@H]1CCCN1C(=O)[C@H](CO)NC(=O)[C@H](CO)NC(=O)[C@H](Cc1c[nH]cn1)NC(=O)[C@H](CCCNC(=N)N)NC(=O)[C@H](CC(C)C)NC(=O)[C@H](Cc1ccccc1)NC(=O)[C@H](CC(N)=O)NC(=O)[C@H](C)NC(=O)[C@H](CC(C)C)NC(=O)[C@H](CCCNC(=N)N)NC(=O)[C@H](CCC(N)=O)NC(=O)[C@@H](NC(=O)[C@H](C)NC(=O)[C@@H]1CSSC[C@H](NC(=O)[C@@H](N)CCCCNC(=O)CC[C@H](NC(=O)CCCCCCCCCCCCCCCCCCC(=O)O)C(=O)O)C(=O)N[C@@H](CC(N)=O)C(=O)N[C@@H]([C@@H](C)O)C(=O)N[C@@H](C)C(=O)N[C@@H]([C@@H](C)O)C(=O)N1)[C@@H](C)O)C(=O)N1CCC[C@H]1C(=O)N[C@@H](CO)C(=O)N[C@@H](CO)C(=O)N[C@H](C(=O)N[C@@H](CC(N)=O)C(=O)N[C@H](C(=O)NCC(=O)N[C@@H](CO)C(=O)N[C@@H](CCCCN)C(=O)N[C@H](C(=O)N[C@@H](Cc1ccc(O)cc1)C(N)=O)[C@@H](C)O)C(C)C)[C@@H](C)O
notes: Synthetic analogue; also called compound 35
Take B4: the “Ratio hCT/hAmylin binding” value in experiment [1] worked out at 50.3. The IC50 in experiment [2] is 48.8 nM.

B5: N^ε1-[(4S)-4-carboxy-4-[[(4S)-4-carboxy-4-(19-carboxynonadecanoylamino)butanoyl]amino]butanoyl]-[Asp14,Arg17,Pro21,Pro26,Asp35]-h-amylin (peptide)
peptide: K([γGlu-γGlu-C20 diacid])CNTATCATQRLADFLRHSSPNFGAPLSSTNVGSDTY-NH2
modifications: disulfide 2-7; N-terminus assumed
SMILES: CC(C)C[C@H](NC(=O)[C@H](CCCNC(=N)N)NC(=O)[C@H](CCC(N)=O)NC(=O)[C@@H](NC(=O)[C@H](C)NC(=O)[C@@H]1CSSC[C@H](NC(=O)[C@@H](N)CCCCNC(=O)CC[C@H](NC(=O)CC[C@H](NC(=O)CCCCCCCCCCCCCCCCCCC(=O)O)C(=O)O)C(=O)O)C(=O)N[C@@H](CC(N)=O)C(=O)N[C@@H]([C@@H](C)O)C(=O)N[C@@H](C)C(=O)N[C@@H]([C@@H](C)O)C(=O)N1)[C@@H](C)O)C(=O)N[C@@H](C)C(=O)N[C@@H](CC(=O)O)C(=O)N[C@@H](Cc1ccccc1)C(=O)N[C@@H](CC(C)C)C(=O)N[C@@H](CCCNC(=N)N)C(=O)N[C@@H](Cc1c[nH]cn1)C(=O)N[C@@H](CO)C(=O)N[C@@H](CO)C(=O)N1CCC[C@H]1C(=O)N[C@@H](CC(N)=O)C(=O)N[C@@H](Cc1ccccc1)C(=O)NCC(=O)N[C@@H](C)C(=O)N1CCC[C@H]1C(=O)N[C@@H](CC(C)C)C(=O)N[C@@H](CO)C(=O)N[C@@H](CO)C(=O)N[C@H](C(=O)N[C@@H](CC(N)=O)C(=O)N[C@H](C(=O)NCC(=O)N[C@@H](CO)C(=O)N[C@@H](CC(=O)O)C(=O)N[C@H](C(=O)N[C@@H](Cc1ccc(O)cc1)C(N)=O)[C@@H](C)O)C(C)C)[C@@H](C)O
notes: Synthetic analogue; also called compound 1
For B5, in experiment [1], the “Ratio hCT/hAmylin binding” value came out at 27.6. Moreover, the IC50 in experiment [2] was determined as 32.5 nM.

B6: N^ε1-[(4S)-4-carboxy-4-[[(4S)-4-carboxy-4-(19-carboxynonadecanoylamino)butanoyl]amino]butanoyl]-[Asp14,Arg17,Pro22,Pro26,Asp35]-h-amylin (peptide)
peptide: K([γGlu-γGlu-C20 diacid])CNTATCATQRLADFLRHSSNPFGAPLSSTNVGSDTY-NH2
modifications: disulfide 2-7; N-terminus assumed
SMILES: CC(C)C[C@H](NC(=O)[C@H](CCCNC(=N)N)NC(=O)[C@H](CCC(N)=O)NC(=O)[C@@H](NC(=O)[C@H](C)NC(=O)[C@@H]1CSSC[C@H](NC(=O)[C@@H](N)CCCCNC(=O)CC[C@H](NC(=O)CC[C@H](NC(=O)CCCCCCCCCCCCCCCCCCC(=O)O)C(=O)O)C(=O)O)C(=O)N[C@@H](CC(N)=O)C(=O)N[C@@H]([C@@H](C)O)C(=O)N[C@@H](C)C(=O)N[C@@H]([C@@H](C)O)C(=O)N1)[C@@H](C)O)C(=O)N[C@@H](C)C(=O)N[C@@H](CC(=O)O)C(=O)N[C@@H](Cc1ccccc1)C(=O)N[C@@H](CC(C)C)C(=O)N[C@@H](CCCNC(=N)N)C(=O)N[C@@H](Cc1c[nH]cn1)C(=O)N[C@@H](CO)C(=O)N[C@@H](CO)C(=O)N[C@@H](CC(N)=O)C(=O)N1CCC[C@H]1C(=O)N[C@@H](Cc1ccccc1)C(=O)NCC(=O)N[C@@H](C)C(=O)N1CCC[C@H]1C(=O)N[C@@H](CC(C)C)C(=O)N[C@@H](CO)C(=O)N[C@@H](CO)C(=O)N[C@H](C(=O)N[C@@H](CC(N)=O)C(=O)N[C@H](C(=O)NCC(=O)N[C@@H](CO)C(=O)N[C@@H](CC(=O)O)C(=O)N[C@H](C(=O)N[C@@H](Cc1ccc(O)cc1)C(N)=O)[C@@H](C)O)C(C)C)[C@@H](C)O
notes: Synthetic analogue; also called compound 3
Turning to B6, the “Ratio hCT/hAmylin binding” value in experiment [1] worked out at 17.3. In experiment [2], the IC50 amounted to 19.5 nM.

For the origin of these results see US20140087995A1 (published 2014).
